According to the RNAGym collection of RNA variant scans (doi:10.7554/elife.90254):

B1: LINE1-full (parent)
chain: UACGUAGGUGGUUUUCCCCUGAUAGUGCUAAGGGGGCCUGGAAGUUUGGACUGGGCAGAGCUCAACACAGCGUGGCAAAGUGGCUGUGGCUAGACUGCCUCUCUGGAUUCCUCGUCACUCAGCAGGGCAUCUCUGAGAGAAAUGCC

Variants of: B1
Assay: self-cleavage, relative activity (ratio to wild type); higher = more cleavage; in vitro, sequencing; the parent is a self-cleaving ribozyme

Compared with UACGUAGGUGGUUUUCCCCUGAUAGUGCUAAGGGGGCCUGGAAGUUUGGACUGGGCAGAGGUCAACACAGCGUGGCUAAGUGGCUGUGGCUAGACUGCCUCUCUGGAUUCCUCGUCACUCAGCAGGGCAUCUCUGAGAGAAAUGCC [C61G A77U], UACGUAGGUGGUUUUCCCCUGAUAGUGCUAAGGGGGCCUGGAAGUUUGGACUGGGCAGAACUCAACACAGCGUGGCAAAGUGGCUGUGGCUAGACUGCCUCUCUGGAUUCCUCGUCACUCAGCAGGGCAUCUCUGAGAUAAAUGCC [G60A G139U] is lower in self-cleavage: 0.04 for the first, 0.03 for the second.

Compared with UACGUAGGUGGUUUUCCCCUGAUAGUGCUAAGGGGGCCUGGAAGUUUGGACUGGGCAGAACACAACACAGCGUGGCAAAGUGGCUGUGGCUAGACUGCCUCUCUGGAUUCCUCGUCACUCAGCAGGGCAUCUCUGAGAGAAAUGCC [G60A U62A], UACGUAGGUGGUUUUCCCCUGAUAGUGCUAAGGGGGCCUGGAAGUUUGGACUGGGCAGAGAUCAACACAGCGUGGCAAAGUGGCUGUGGCUAGACUGCCUCCCUGGAUUCCUCGUCACUCAGCAGGGCAUCUCUGAGAGAAAUGCC [C61A U102C] is higher in self-cleavage: 0.01 for the first, 0.05 for the second.

First: UACGUAGGUGGUUUUCCCCUGAUAGUGCUAAGGGGGCCUGGAAGUUUGGACUGGGCAGAACUCAACACAGCGUGGCAAAGUGGCUGUGGCUAGACUGCCUCUCUGGAUUCCUCGUCACUCAGCAGGGCAUCUCUGAGAGAAAUGCA [G60A C146A]
Second: UACGUAGGUGGUUUUCCCCUGAUAGUGCUAAGGGGGCCUGGAAGUUUGGACUGGGCAGAACUCAACACAGCGUGGCAAAGUGGCUGUGGCUAGACUGCCUCUCUGGAUUCCUUGUCACUCAGCAGGGCAUCUCUGAGAGAAAUGCC [G60A C113U]
The self-cleavage of the first is higher: 0.02 for the first, 0 for the second.

Going from UACGUAGGUGGUUUUCCCCUGAUAGUGCUAAGGGGGCCUGGAAGUUUGGACUGGGCAGAACUCAACACAGCGUGGCAAAGUGGCUGUGGCUAGACUGCCUCCCUGGAUUCCUCGUCACUCAGCAGGGCAUCUCUGAGAGAAAUGCC [G60A U102C] to UACGUAGGUGGUUUUCCCCUGAUAGUGCUAAGGGGGCCUGGAAGUUUGGACUGGGCAGAUCUCUACACAGCGUGGCAAAGUGGCUGUGGCUAGACUGCCUCUCUGGAUUCCUCGUCACUCAGCAGGGCAUCUCUGAGAGAAAUGCC [G60U A64U], the self-cleavage rises from 0.01 to 0.05.

UACGUAGGUGGUUUUCCCCUGAUAGUGCUAAGGGGGCCUGGAAGUUUGGACUGGGCAGAGAUCAACACAGCGUGGCAAAGUGGCUGUGGCUAGGCUGCCUCUCUGGAUUCCUCGUCACUCAGCAGGGCAUCUCUGAGAGAAAUGCC [C61A A94G] and UACGUAGGUGGUUUUCCCCUGAUAGUGCUAAGGGGGCCUGGAAGUUUGGACUGGGCAGAACUCAACACAGCGUGGCAAAGUGGCUGUGGCUAGACUGCCUCUCUGGAUUCCACGUCACUCAGCAGGGCAUCUCUGAGAGAAAUGCC [G60A U112A] are the same in self-cleavage: 0.04 for the first, 0.04 for the second.

Compared with UACGUAGGUGGUUUUCCCCUGAUAGUGCUAAGGGGGCCUGGAAGUUUGGACUGGGCAGAGGUCAACACAGCGUGGCAAAGUGGCUGUGGCUAGACUGCCUCUCUGGAUUCCUCGUCACUCAGCUGGGCAUCUCUGAGAGAAAUGCC [C61G A124U], UACGUAGGUGGUUUUCCCCUGAUAGUGCUAAGGGGGCCUGGAAGUUUGGACUGGGCAGAUCUCAUCACAGCGUGGCAAAGUGGCUGUGGCUAGACUGCCUCUCUGGAUUCCUCGUCACUCAGCAGGGCAUCUCUGAGAGAAAUGCC [G60U A65U] is lower in self-cleavage: 0.11 for the first, 0.02 for the second.

First: UACGUAGGUGGUUUUCCCCUGAUAGUGCUAAGGGGGCCUGGAAGUUUGGACUGGGCAGAACUCAACAUAGCGUGGCAAAGUGGCUGUGGCUAGACUGCCUCUCUGGAUUCCUCGUCACUCAGCAGGGCAUCUCUGAGAGAAAUGCC [G60A C68U]
Second: UACGUAGGUGGUUUUCCCCUGAUAGUGCUAAGGGGGCCUGGAAGUUUGGACUGGGCAGAGAUCAACACUGCGUGGCAAAGUGGCUGUGGCUAGACUGCCUCUCUGGAUUCCUCGUCACUCAGCAGGGCAUCUCUGAGAGAAAUGCC [C61A A69U]
The self-cleavage of the first is higher: 0.03 for the first, 0.02 for the second.

First: UACGUAGGUGGUUUUCCCCUGAUAGUGCUAAGGGGGCCUGGAAGUUUGGACUGGGCAGAACUCAACACAGCGUGGCAAAGUGGCUGUGGCUAGACUGCCUCUCUUGAUUCCUCGUCACUCAGCAGGGCAUCUCUGAGAGAAAUGCC [G60A G105U]
Second: UACGUAGGUGGUUUUCCCCUGAUAGUGCUAAGGGGGCCUGGAAGUUUGGACUGGGCAGAUCUCAACACAGCGUGGCAAAGUGGCUGUGGCUAGACUGCCUCUCUGGAUUCCUCGUCACUCCGCAGGGCAUCUCUGAGAGAAAUGCC [G60U A121C]
The self-cleavage of the first is lower: 0.01 for the first, 0.03 for the second.

Compared with UACGUAGGUGGUUUUCCCCUGAUAGUGCUAAGGGGGCCUGGAAGUUUGGACUGGGCAGAACUCAACACAGCGUGGCAAAGUGGCUGUGGCUAGACUGCCUCUCUGGAUUCCUCGUCACUCAGCAGGACAUCUCUGAGAGAAAUGCC [G60A G127A], UACGUAGGUGGUUUUCCCCUGAUAGUGCUAAGGGGGCCUGGAAGUUUGGACUGGGCAGAAGUCAACACAGCGUGGCAAAGUGGCUGUGGCUAGACUGCCUCUCUGGAUUCCUCGUCACUCAGCAGGGCAUCUCUGAGAGAAAUGCC [G60A C61G] is higher in self-cleavage: 0.03 for the first, 0.04 for the second.

UACGUAGGUGGUUUUCCCCUGAUAGUGCUAAGGGGGCCUGGAAGUUUGGACUGGGCAGAACUCAACACAGCGCGGCAAAGUGGCUGUGGCUAGACUGCCUCUCUGGAUUCCUCGUCACUCAGCAGGGCAUCUCUGAGAGAAAUGCC [G60A U73C] and UACGUAGGUGGUUUUCCCCUGAUAGUGCUAAGGGGGCCUGGAAGUUUGGACUGGGCAGAACUCAACACAGCGAGGCAAAGUGGCUGUGGCUAGACUGCCUCUCUGGAUUCCUCGUCACUCAGCAGGGCAUCUCUGAGAGAAAUGCC [G60A U73A] are the same in self-cleavage: 0.02 for the first, 0.02 for the second.
